Measurements from PMC7034192.

Experiments:
M1R L131A = M1R L131A (UniProt P11229)
M2R L129A = M2R L129A (UniProt P08172)
Chain of UniProt P08172 (P08172 whole entry L129A): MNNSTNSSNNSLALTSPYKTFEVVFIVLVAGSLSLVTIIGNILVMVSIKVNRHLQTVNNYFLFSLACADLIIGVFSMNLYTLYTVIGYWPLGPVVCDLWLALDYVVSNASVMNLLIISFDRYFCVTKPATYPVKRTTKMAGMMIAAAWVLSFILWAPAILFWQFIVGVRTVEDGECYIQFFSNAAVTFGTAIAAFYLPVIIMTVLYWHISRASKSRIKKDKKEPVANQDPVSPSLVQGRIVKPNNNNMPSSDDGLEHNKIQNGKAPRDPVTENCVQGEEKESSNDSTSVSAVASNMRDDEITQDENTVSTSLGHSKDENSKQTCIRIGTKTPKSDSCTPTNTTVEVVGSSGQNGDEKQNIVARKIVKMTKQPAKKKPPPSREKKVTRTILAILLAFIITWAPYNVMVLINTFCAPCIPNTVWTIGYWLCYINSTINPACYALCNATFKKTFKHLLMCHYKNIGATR

| Substance | coupling with G11, percent of wild type (fig. S10) (% of wild type) (M1R L131A) | coupling to GoA, percent of wild type (fig. S10) (% of wild type) (M2R L129A) |
| --- | --- | --- |
| G_(11iN) heterotrimer (Gα_(11iN), Gβ1, Gγ2) (from UniProt P63096 1-29; P29992 36-359; P62873 2-340; P59768 1-71) (complex) | 17 | – |
| G_(oAiN) heterotrimer (Gα_(oAiN), Gβ1, Gγ2) (from UniProt P09471 1-354; P62873 2-340; P59768 1-71) (complex) | – | 49 |
